Blank lines part the entries; values can stand above or below the binder they belong to.
What was measured:
Assay in all cases: cell-based or functional assay
mouse RXFP1 = target: T1, mouse RXFP1 (mouse, UniProt Q6R6I7 1-758)
T1 sequence (looked up): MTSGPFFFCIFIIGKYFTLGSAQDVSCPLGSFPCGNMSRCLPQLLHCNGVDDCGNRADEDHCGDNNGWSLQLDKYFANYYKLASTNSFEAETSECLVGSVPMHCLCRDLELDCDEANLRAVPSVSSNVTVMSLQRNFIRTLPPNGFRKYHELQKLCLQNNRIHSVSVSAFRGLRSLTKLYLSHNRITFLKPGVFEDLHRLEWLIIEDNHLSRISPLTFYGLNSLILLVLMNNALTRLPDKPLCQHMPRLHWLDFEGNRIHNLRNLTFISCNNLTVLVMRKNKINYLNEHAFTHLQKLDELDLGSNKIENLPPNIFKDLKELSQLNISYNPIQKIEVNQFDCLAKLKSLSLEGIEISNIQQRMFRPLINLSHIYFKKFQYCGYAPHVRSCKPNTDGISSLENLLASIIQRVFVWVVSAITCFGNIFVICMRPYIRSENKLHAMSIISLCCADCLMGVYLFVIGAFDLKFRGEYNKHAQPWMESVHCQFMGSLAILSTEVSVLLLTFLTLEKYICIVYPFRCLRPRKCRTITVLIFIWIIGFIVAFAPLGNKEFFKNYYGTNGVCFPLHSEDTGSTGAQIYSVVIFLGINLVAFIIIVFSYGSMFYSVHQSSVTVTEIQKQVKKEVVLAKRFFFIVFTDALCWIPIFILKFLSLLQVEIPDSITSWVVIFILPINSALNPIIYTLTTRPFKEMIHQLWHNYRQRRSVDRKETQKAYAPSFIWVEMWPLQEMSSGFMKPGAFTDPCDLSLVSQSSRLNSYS

human RXFP1 = target: T2, human RXFP1 (human, UniProt Q9HBX9 1-757)
T2 sequence (looked up): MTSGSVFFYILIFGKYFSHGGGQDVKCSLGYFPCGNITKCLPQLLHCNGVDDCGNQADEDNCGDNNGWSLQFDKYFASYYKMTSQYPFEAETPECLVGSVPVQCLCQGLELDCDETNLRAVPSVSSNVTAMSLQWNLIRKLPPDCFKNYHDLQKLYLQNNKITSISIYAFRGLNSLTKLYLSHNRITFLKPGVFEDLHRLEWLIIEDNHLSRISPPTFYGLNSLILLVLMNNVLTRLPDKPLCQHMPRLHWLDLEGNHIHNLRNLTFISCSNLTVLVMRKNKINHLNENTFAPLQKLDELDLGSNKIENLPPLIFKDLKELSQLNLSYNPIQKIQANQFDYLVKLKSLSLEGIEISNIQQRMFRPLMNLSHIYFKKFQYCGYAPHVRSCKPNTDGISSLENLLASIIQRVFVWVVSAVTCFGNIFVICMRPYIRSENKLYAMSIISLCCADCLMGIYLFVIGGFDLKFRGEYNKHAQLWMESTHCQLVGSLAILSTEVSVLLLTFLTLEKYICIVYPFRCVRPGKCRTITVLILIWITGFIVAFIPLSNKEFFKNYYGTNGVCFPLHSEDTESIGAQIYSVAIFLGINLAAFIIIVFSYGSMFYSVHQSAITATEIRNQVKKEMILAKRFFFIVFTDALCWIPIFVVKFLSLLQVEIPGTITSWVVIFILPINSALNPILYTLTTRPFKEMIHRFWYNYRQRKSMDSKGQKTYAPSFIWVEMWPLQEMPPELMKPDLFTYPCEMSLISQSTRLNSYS

human RXFP2 = human RXFP2 (human, UniProt Q8WXD0 1-754)
human RXFP2, sequence (Q8WXD0 whole entry): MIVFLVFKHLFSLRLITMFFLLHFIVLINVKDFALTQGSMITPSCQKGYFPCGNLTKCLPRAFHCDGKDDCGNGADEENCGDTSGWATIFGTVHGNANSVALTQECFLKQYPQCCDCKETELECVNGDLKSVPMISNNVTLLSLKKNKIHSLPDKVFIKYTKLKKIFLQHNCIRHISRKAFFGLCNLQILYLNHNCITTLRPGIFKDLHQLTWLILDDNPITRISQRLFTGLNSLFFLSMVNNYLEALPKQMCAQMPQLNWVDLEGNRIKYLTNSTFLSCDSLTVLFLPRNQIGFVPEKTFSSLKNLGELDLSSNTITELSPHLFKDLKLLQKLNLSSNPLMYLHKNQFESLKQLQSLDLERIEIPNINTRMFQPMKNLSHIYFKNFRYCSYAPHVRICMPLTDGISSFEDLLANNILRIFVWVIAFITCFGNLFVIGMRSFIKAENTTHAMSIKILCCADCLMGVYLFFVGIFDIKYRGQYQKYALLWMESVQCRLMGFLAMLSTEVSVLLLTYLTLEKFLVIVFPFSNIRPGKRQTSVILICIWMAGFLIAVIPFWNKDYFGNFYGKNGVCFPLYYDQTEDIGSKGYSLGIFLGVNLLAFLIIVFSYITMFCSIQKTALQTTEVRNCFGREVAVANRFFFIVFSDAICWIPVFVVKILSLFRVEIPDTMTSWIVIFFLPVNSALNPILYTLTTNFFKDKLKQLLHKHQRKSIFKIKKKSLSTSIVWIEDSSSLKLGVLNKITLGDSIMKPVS

EC50 mRXFP1 (M), cAMP assay (mouse RXFP1): 1.34e-11 M | EC50 hRXFP1 (M), cAMP assay (human RXFP1): 2.81e-11 M | EC50 hRXFP2 (M), cAMP assay (human RXFP2): 2.42e-08 M
B1: RELAX0083 (Fc fusion)
chain 1: DKTHTCPPCPAPEFEGGPSVFLFPPKPKDTLMISRTPEVTCVVVDVSHEDPEVKFNWYVDGVEVHNAKTKPREEQYNSTYRVVSVLTVLHQDWLNGKEYKCKVSNKALPASIEKTISKAKGQPREPQVYTLPPCREEMTKNQVSLWCLVKGFYPSDIAVEWESNGQPENNYKTTPPVLDSDGSFFLYSKLTVDKSRWQQGNVFSCSVMHEALHNHYTQKSLSLSPGGGGGGSQLYSALANKCCHVGCTKRSLARFC
chain 2: DKTHTCPPCPAPEFEGGPSVFLFPPKPKDTLMISRTPEVTCVVVDVSHEDPEVKFNWYVDGVEVHNAKTKPREEQYNSTYRVVSVLTVLHQDWLNGKEYKCKVSNKALPASIEKTISKAKGQPREPQVCTLPPSREEMTKNQVSLSCAVKGFYPSDIAVEWESNGQPENNYKTTPPVLDSDGSFFLVSKLTVDKSRWQQGNVFSCSVMHEALHNHYTQKSLSLSPGGGGGGSSWMEEVIKLCGRELVRAQIAICGMSTWS

EC50 mRXFP1 (M), cAMP assay (mouse RXFP1): 4.73e-11 M | EC50 hRXFP1 (M), cAMP assay (human RXFP1): 4.51e-11 M | EC50 hRXFP2 (M), cAMP assay (human RXFP2): 4.92e-08 M
B2: RELAX0081 (Fc fusion)
chain 1: DKTHTCPPCPAPEFEGGPSVFLFPPKPKDTLMISRTPEVTCVVVDVSHEDPEVKFNWYVDGVEVHNAKTKPREEQYNSTYRVVSVLTVLHQDWLNGKEYKCKVSNKALPASIEKTISKAKGQPREPQVYTLPPCREEMTKNQVSLWCLVKGFYPSDIAVEWESNGQPENNYKTTPPVLDSDGSFFLYSKLTVDKSRWQQGNVFSCSVMHEALHNHYTQKSLSLSPGGGGGSGGGGSGGGGGSQLYSALANKCCHVGCTKRSLARFC
chain 2: DKTHTCPPCPAPEFEGGPSVFLFPPKPKDTLMISRTPEVTCVVVDVSHEDPEVKFNWYVDGVEVHNAKTKPREEQYNSTYRVVSVLTVLHQDWLNGKEYKCKVSNKALPASIEKTISKAKGQPREPQVCTLPPSREEMTKNQVSLSCAVKGFYPSDIAVEWESNGQPENNYKTTPPVLDSDGSFFLVSKLTVDKSRWQQGNVFSCSVMHEALHNHYTQKSLSLSPGGGGGSGGGGSGGGGGSSWMEEVIKLCGRELVRAQIAICGMSTWS

EC50 mRXFP1 (M), cAMP assay (mouse RXFP1): 8.22e-10 M | EC50 hRXFP1 (M), cAMP assay (human RXFP1): 1.72e-09 M
B3: RELAX0109 (Fc fusion)
chain 1: B2 chain 1
chain 2: DKTHTCPPCPAPEFEGGPSVFLFPPKPKDTLMISRTPEVTCVVVDVSHEDPEVKFNWYVDGVEVHNAKTKPREEQYNSTYRVVSVLTVLHQDWLNGKEYKCKVSNKALPASIEKTISKAKGQPREPQVYTLPPCREEMTKNQVSLWCLVKGFYPSDIAVEWESNGQPENNYKTTPPVLDSDGSFFLYSKLTVDKSRWQQGNVFSCSVMHEALHNHYTQKSLSLSPGAAPAPAPAPAPAPAGSSWMEEVIKLCGRELVRAQIAICGMSTWS

EC50 mRXFP1 (M), cAMP assay (mouse RXFP1): 4.9e-11 M | EC50 hRXFP1 (M), cAMP assay (human RXFP1): 5.68e-11 M | EC50 hRXFP2 (M), cAMP assay (human RXFP2): 3.81e-08 M
B4: RELAX0082 (Fc fusion)
chain 1: DKTHTCPPCPAPEFEGGPSVFLFPPKPKDTLMISRTPEVTCVVVDVSHEDPEVKFNWYVDGVEVHNAKTKPREEQYNSTYRVVSVLTVLHQDWLNGKEYKCKVSNKALPASIEKTISKAKGQPREPQVYTLPPCREEMTKNQVSLWCLVKGFYPSDIAVEWESNGQPENNYKTTPPVLDSDGSFFLYSKLTVDKSRWQQGNVFSCSVMHEALHNHYTQKSLSLSPGGGGGSGGGGGSQLYSALANKCCHVGCTKRSLARFC
chain 2: DKTHTCPPCPAPEFEGGPSVFLFPPKPKDTLMISRTPEVTCVVVDVSHEDPEVKFNWYVDGVEVHNAKTKPREEQYNSTYRVVSVLTVLHQDWLNGKEYKCKVSNKALPASIEKTISKAKGQPREPQVCTLPPSREEMTKNQVSLSCAVKGFYPSDIAVEWESNGQPENNYKTTPPVLDSDGSFFLVSKLTVDKSRWQQGNVFSCSVMHEALHNHYTQKSLSLSPGGGGGSGGGGGSSWMEEVIKLCGRELVRAQIAICGMSTWS

From patent US20220017591A1 (AstraZeneca / MedImmune, published 2022)
